T1: σ^L 1-177 (Mycobacterium tuberculosis sigma factor L, Rv0735), N-term His-tag (Mycobacterium tuberculosis, UniProt P9WGH5 1-177)
T1 construct: range 1-177; also called SigL; Mtb σ^L; not shown: N-terminal His-tag from pET-Duet1 MCS1
T1 sequence: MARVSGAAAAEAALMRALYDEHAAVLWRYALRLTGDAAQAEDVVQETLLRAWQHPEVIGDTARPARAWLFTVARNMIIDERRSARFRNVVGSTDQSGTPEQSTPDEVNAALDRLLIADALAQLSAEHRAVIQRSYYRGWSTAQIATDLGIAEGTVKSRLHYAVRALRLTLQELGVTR

B1: holo-RslA 1-108 (Zn2+ bound N-terminal cytosolic domain of M. tuberculosis anti-σ^L factor RslA), N-term His-tag (other)
chain: MTMPLRGLGPPDDTGVREVSTGDDHHYAMWDAAYVLGALSAADRREFEAHLAGCPECRGAVTELCGVPALLSQLDRDEVAAISESAPTVVASGLSPELLPSLLAAVHR
modifications: Zn2+ bound in 1:1 stoichiometry (holo, reduced; three free cysteines)
notes: range 1-108; Immobilized on a CM5 chip for SPR; Self-associates into dimers and tetramers in solution; also called Mtb RslA; Rsl1A 1-108; not shown: N-terminal His-tag from pET-Duet1 MCS1

What was measured:
[1] = target: B1; assay: SPR (BIACORE 2000), RslA immobilized on CM5 chip, σ^L2 as analyte
[2] = target: T1, σ^L 1-177 (Mycobacterium tuberculosis …); assay: SPR (BIACORE 2000), RslA immobilized on CM5 chip, σ^L as analyte
[3] = target: the molecule itself; assay: analytical gel filtration; dynamic light scattering

Row | Binder | Kd [1] | fold reduction in affinity against intact σ^L [1] | Kd [2] | binding result [3]
1 | σ^L2 domain of M. tuberculosis σ^L (N-term His-tag σ^L 1-95) (other, range 1-95; not shown: N-terminal His-tag from pET-Duet1 MCS1) MARVSGAAAAEAALMRALYDEHAAVLWRYALRLTGDAAQAEDVVQETLLRAWQHPEVIGDTARPARAWLFTVARNMIIDERRSARFRNVVGSTDQ | ~2000 nM | ~100 fold |  | 
2 | B1 |  |  | ~20 nM | binds
